Data on 167 variants can be found in the RNAGym collection of RNA variant scans (doi:10.7554/elife.80360).

First the molecules themselves.
B1: Hairpin Ribozyme (parent)
chain: GUCCUCUUUCACGUGCGCGUGAAAGAGAGAAGUGAACCAGAGAAACACACGUUGUGGUAUAUUACCUGGUA

In this data set the parent is B1. Briefly: self-cleavage, relative activity (ratio to wild type); higher = more cleavage; co-transcriptional.
On to U20A A43C, for which the self-cleavage was 0.0739.
Next, G21U C46G: 0.0824; U20A C38U: 0.45.
The figure for U20A C38G is 0.19; for U20A A64C it is 0.163; for U20A C48U it is 0.137.
Next, G21U G56A: 0.178; G21U G56U: 0.147; U20G A36G: 0.569.
In the case of G21C U53G, the self-cleavage amounted to 0.58.
The figure for G21U G34C is 1.08; for G19U U20C it is 0.731; for G19U G69C it is 0.269.
The figure for G21A G57U is 0.232.
Next, G21A G57C: 0.193.
For U20G A41G, the self-cleavage was 0.687.
The figure for U20G G40A is 0.296; for U20G G40U it is 0.206; for U20G U33C it is 0.109.
With U20A A59C, the self-cleavage was determined as 0.0988.
In the case of U20A A59G, the self-cleavage was found to be 0.182.
The figure for G21U A28C is 0.366; for G21U A28G it is 0.98; for U20G A47C it is 0.299.
In the case of U20G A47G, the self-cleavage was determined as 0.0572.
As to U20A G34U, the self-cleavage amounted to 1.29.
The figure for G19U U62C is 0.256.
Next, U20C C48A: 0.221; U20G A49C: 0.172; U20G A49G: 0.364.
Next, U20C G69U: 0.23; G21C G51U: 0.865.
Consider G21C G51C, for which the self-cleavage worked out at 0.803.
The figure for U20A U63G is 0.263; for U20A U63A it is 0.261.
Next, G19U U60C: 1.2; U20C U53C: 0.998.
For the variant G21U A35G, the self-cleavage was found to be 0.757.
Next, U20A G40U: 0.153; G21C A24U: 0.585; G21U A45U: 0.218.
On to G21U A45C, for which the self-cleavage was 0.218.
The figure for G21U A45G is 0.26.
Next, U20A U67G: 0.256; U20C G68A: 0.251.
Next, G21A A23U: 0.825.
For the variant G21A A23C, the self-cleavage came out at 0.683.
The figure for G21A A23G is 0.707.
The figure for U20G C48U is 0.228.
The figure for U20G G57C is 0.123; for G21A A44C it is 0.116.
G21A A44G: the self-cleavage is 0.142.
For G21A A44U, the self-cleavage was found to be 0.215.
Regarding G21U A24G, the self-cleavage was 0.805.
The figure for G21U C65U is 0.234; for G21U C65G it is 0.257.
The figure for G21A G68U is 0.165.
Next, U20A A26G: 0.859.
Regarding G21C C38G, the self-cleavage was determined as 0.154.
The figure for U20G G56U is 0.191; for U20G G56A it is 0.0796; for U20A A35U it is 0.872.
Next, U20A U52A: 0.844; U20A U52C: 0.96.
The figure for G21C G57C is 0.143; for G21C C50U it is 0.256.
Consider G21C C50A, for which the self-cleavage amounted to 0.386.
On to G21A A41G, for which the self-cleavage was found to be 0.765.
Next, G21A A41C: 0.761; U20C A43G: 0.105; U20A G27A: 0.385.
Next, U20A G27C: 0.175; U20C A61U: 0.21.
The figure for U20G C66U is 0.411.
On to G21C A41G, for which the self-cleavage turned out to be 0.606.
The figure for G21A A22C is 0.581.
Next, G21A A22U: 0.771; U20A A39U: 0.296.
The figure for U20C A44G is 0.204; for U20C A44U it is 0.115.
Take U20C U52A: the self-cleavage came out at 0.957.
The figure for U20C U52C is 1.03; for U20C U52G it is 1.12.
The figure for U20G U60G is 0.662; for G21C U55C it is 0.204; for G21C U55G it is 0.248.
Turning to G21C U55A, the self-cleavage stood at 0.165.
Next, G21A U62C: 0.199; G21A U62A: 0.135.
Next, G21A U53G: 0.699; U20C G42U: 0.172.
Next, U20C C37U: 0.756.
For the variant G21A C48G, the self-cleavage is 0.192.
Next, G21C G40A: 0.258.
Next, G21C U52G: 0.654.
For the variant G21A A61C, the self-cleavage was 0.253.
Next, U20C C50A: 0.206.
For the variant G21C A49G, the self-cleavage is 0.302.
Next, G21C A49C: 0.17; G21C A49U: 0.293.
Take U20C A47G: the self-cleavage is 0.159.
Next, U20C A47C: 0.358; G21U A49U: 0.189.
The figure for U20A A30U is 0.145; for U20C U70A it is 1.08; for U20C U70C it is 0.945.
On to U20C G54A, for which the self-cleavage is 0.544.
The figure for U20C G54U is 0.386; for U20C G34A it is 1.15; for U20C G34U it is 1.32.
The figure for U20G G51C is 0.572.
The figure for U20C A26U is 0.692; for U20A U70A it is 0.784; for U20A U70G it is 0.651.
Turning to U20C U67A, the self-cleavage came to 0.213.
Regarding U20C G25U, the self-cleavage was 0.576.
The figure for U20C G25C is 0.513; for G21A U33A it is 0.151.
Next, U20G C37A: 0.186; G19U U67G: 0.272; G19U U67A: 0.131.
The figure for G21C G69U is 0.155.
Turning to G21C A71U, the self-cleavage was determined as 0.794.
The figure for G21U G51A is 0.822.
For U20A U33A, the self-cleavage stood at 0.114.
Next, U20A U33G: 0.183.
U20G C46A: the self-cleavage was 0.229.
The figure for U20G C46G is 0.219.
The figure for U20C A49G is 0.524.
On to G21A G51U, for which the self-cleavage was 0.99.
As to G21A G51A, the self-cleavage was determined as 1.04.
Next, G21A G51C: 0.771; G21A U52A: 0.78; G21C C48A: 0.0883.
For G21C G34A, the self-cleavage is 1.02.
The figure for U20C A41C is 1.11.
Next, U20G G25A: 0.469; G21U G27A: 0.25; G21U G57C: 0.176.
Next, U20G A24G: 0.673; G19U U63G: 0.205; G19U U58A: 0.607.
Consider G21U G29U, for which the self-cleavage is 0.106.
The figure for G21U G29A is 0.142.
The figure for U20A G57U is 0.259.
The figure for U20G A39U is 0.311.
For the variant U20G U63A, the self-cleavage was found to be 0.171.
The figure for U20G U63G is 0.265.
Next, U20G U63C: 0.255; G21U A71C: 1.2.
The figure for G21U A71U is 0.754; for U20G U62G it is 0.323; for U20G U62A it is 0.149.
With U20G U53G, the self-cleavage worked out at 0.702.
Next, G21A G27A: 0.346; G21A G27C: 0.195.
The figure for U20A A31G is 0.466; for U20G U67G it is 0.157.
Next, U20G U70G: 0.994; U20A C50G: 0.132; U20C A36U: 0.529.
Take U20C A36C: the self-cleavage came to 0.526.
Next, G21A A39G: 0.306; U20G A43G: 0.206.
Next, U20G A43U: 0.189; U20G A43C: 0.214; G21A A30G: 0.238.
